Measurements from paper doi:10.1101/2023.02.09.527830.
Where “and” joins values, the source holds several entries; their conditions need not be identical. Identical values can stand only once.

Tests used:
[1] = target: Lassa virus nucleoprotein (NP), AV strain (Lassa virus (AV strain)); experiment: native MS
[2] = target: Lassa virus Z protein, AV strain (Lassa virus (AV strain)); experiment: native MS
[3] = target: Lassa virus nucleoprotein (NP), AV strain (Lassa virus (AV strain)); experiment: native MS; remark: listed apart in the source
[4] = target: Lassa virus nucleoprotein (NP), AV strain (Lassa virus (AV strain)); experiment: SEC
[5] = target: Lassa virus nucleoprotein (NP), AV strain (Lassa virus (AV strain)); experiment: negative-stain electron microscopy

Row | Substance | Kd [1] [µM] | stoichiometry N [1] | stoichiometry N [2] | stoichiometry N [3] | stoichiometry N [4] | stoichiometry N [5]
1 | Lassa virus Z protein, AV strain (natural protein) | 30 | < 3 | < 6 | – | – | –
2 | Lassa virus nucleoprotein (NP), AV strain (natural protein) | – | 2 and 3 | – | 4 and 5 and 6 | 3 | 3
